According to publication PMC3764190, “Type I-E CRISPR-Cas Systems Discriminate Target from Non-Target DNA through Base Pairing-Independent PAM Recognition”:

Columns and labels:
[1] = molecular target: T1, Cascade (Type I-E crRNA-guided surveillance complex, crRNA-loaded) (Escherichia coli K12 (expressed in …, UniProt Q46901;P76632;Q46899;Q46898;Q46897 1-502;1-160;2-363;1-224;2-199)); assay: EMSA; g8C-2A crRNA; slightly reduced affinity; EMSA with 32P-labelled dsDNA; buffer, salt, pH and temperature not stated (as in ref 29); Kd from fraction bound = [Cascade]/(Kd+[Cascade]); details: protein: recombinant; copies: 1;2;6;1;1; label: 5'-32P on DNA; guide / target / displaced; DNA blunt duplex
T1 sequence 1: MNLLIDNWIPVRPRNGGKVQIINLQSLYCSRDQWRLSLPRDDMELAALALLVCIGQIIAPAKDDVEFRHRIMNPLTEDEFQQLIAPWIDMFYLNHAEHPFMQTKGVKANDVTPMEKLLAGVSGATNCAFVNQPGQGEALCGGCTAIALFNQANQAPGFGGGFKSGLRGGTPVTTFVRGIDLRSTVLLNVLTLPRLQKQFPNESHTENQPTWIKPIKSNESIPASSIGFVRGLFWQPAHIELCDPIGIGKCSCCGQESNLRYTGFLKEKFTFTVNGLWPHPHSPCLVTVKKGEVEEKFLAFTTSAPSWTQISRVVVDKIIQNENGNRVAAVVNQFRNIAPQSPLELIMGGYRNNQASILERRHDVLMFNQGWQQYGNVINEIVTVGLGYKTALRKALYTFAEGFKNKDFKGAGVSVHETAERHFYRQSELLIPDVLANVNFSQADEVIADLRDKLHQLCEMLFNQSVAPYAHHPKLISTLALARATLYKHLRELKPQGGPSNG
T1 sequence 2: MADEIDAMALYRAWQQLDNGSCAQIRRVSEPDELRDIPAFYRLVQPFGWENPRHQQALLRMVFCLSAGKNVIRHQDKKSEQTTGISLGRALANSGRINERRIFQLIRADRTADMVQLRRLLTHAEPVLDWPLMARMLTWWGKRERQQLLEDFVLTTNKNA
T1 sequence 3: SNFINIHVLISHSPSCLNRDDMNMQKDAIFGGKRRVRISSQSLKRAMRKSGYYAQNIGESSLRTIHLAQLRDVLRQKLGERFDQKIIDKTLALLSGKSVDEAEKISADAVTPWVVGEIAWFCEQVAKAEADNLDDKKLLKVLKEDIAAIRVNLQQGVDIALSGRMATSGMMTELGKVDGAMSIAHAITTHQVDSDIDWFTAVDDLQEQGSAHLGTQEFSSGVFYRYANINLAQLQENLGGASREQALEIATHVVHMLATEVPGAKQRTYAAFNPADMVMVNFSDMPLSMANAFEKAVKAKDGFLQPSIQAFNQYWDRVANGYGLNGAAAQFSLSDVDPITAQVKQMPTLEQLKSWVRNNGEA
T1 sequence 4: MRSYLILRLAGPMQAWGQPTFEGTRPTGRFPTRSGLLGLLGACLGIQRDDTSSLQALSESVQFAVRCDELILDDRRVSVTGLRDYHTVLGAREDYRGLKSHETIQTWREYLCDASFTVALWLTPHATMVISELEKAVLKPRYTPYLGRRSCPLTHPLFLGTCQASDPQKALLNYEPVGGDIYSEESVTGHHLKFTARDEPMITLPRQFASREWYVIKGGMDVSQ
T1 sequence 5: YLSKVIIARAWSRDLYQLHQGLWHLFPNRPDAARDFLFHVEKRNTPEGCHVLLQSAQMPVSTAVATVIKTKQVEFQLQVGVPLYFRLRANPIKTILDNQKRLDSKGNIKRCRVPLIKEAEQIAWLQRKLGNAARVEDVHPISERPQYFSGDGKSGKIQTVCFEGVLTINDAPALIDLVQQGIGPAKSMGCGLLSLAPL

[2] = molecular target: T1, Cascade (Type I-E crRNA-guided …); assay: EMSA; WT crRNA; EMSA with 32P-labelled dsDNA; buffer, salt, pH and temperature not stated (as in ref 29); Kd from fraction bound = [Cascade]/(Kd+[Cascade]); details: protein: recombinant, copies: 1;2;6;1;1, label: 5'-32P on DNA, DNA blunt duplex
[3] = molecular target: T1, Cascade (Type I-E crRNA-guided …); assay: EMSA; g8G-1T crRNA; EMSA with 32P-labelled dsDNA; buffer, salt, pH and temperature not stated (as in ref 29); Kd from fraction bound = [Cascade]/(Kd+[Cascade]); details: protein: recombinant; copies: 1;2;6;1;1; label: 5'-32P on DNA; guide / target / displaced; DNA blunt duplex

B1: g8C-2A crRNA + CTT PAM probe (mixed)
RNA: AUAAACAGCUGUCUUUCGCUGCUGAGGGUGACGAUCCCGCGAGUUCCCCGCGCCAGCGGGG
DNA 1: TTAAAGGCCGCTTTTGCGGGATCGTCACCCTCAGCAGCGAAAGACAGCTTCGGAACGAGGGTAGC
DNA 2: GCTACCCTCGTTCCGAAGCTGTCTTTCGCTGCTGAGGGTGACGATCCCGCAAAAGCGGCCTTTAA
Binder B1 has a Kd [1] of 60 ± 12 nM.

B2: WT g8 crRNA + CTC PAM (GAG) M13 probe (mixed)
RNA: AUAAACCGCUGUCUUUCGCUGCUGAGGGUGACGAUCCCGCGAGUUCCCCGCGCCAGCGGGG
DNA 1: TTAAAGGCCGCTTTTGCGGGATCGTCACCCTCAGCAGCGAAAGACAGCTCCGGAACGAGGGTAGC
DNA 2: GCTACCCTCGTTCCGGAGCTGTCTTTCGCTGCTGAGGGTGACGATCCCGCAAAAGCGGCCTTTAA
B2: binds ([2]; guide / target / displaced).

B3: WT g8 crRNA + CCT PAM (AGG) M13 probe (mixed)
RNA: AUAAACCGCUGUCUUUCGCUGCUGAGGGUGACGAUCCCGCGAGUUCCCCGCGCCAGCGGGG
DNA 1: TTAAAGGCCGCTTTTGCGGGATCGTCACCCTCAGCAGCGAAAGACAGCCTCGGAACGAGGGTAGC
DNA 2: GCTACCCTCGTTCCGAGGCTGTCTTTCGCTGCTGAGGGTGACGATCCCGCAAAAGCGGCCTTTAA
B3: binds ([2]; guide / target / displaced).

B4: WT g8 crRNA + CAT PAM (ATG) M13 probe (mixed)
RNA: AUAAACCGCUGUCUUUCGCUGCUGAGGGUGACGAUCCCGCGAGUUCCCCGCGCCAGCGGGG
DNA 1: TTAAAGGCCGCTTTTGCGGGATCGTCACCCTCAGCAGCGAAAGACAGCATCGGAACGAGGGTAGC
DNA 2: GCTACCCTCGTTCCGATGCTGTCTTTCGCTGCTGAGGGTGACGATCCCGCAAAAGCGGCCTTTAA
B4: binds ([2]; guide RNA / target strand / displaced strand).

B5: g8G-1T crRNA + CTT PAM probe (mixed)
RNA: AUAAACCUCUGUCUUUCGCUGCUGAGGGUGACGAUCCCGCGAGUUCCCCGCGCCAGCGGGG
DNA 1: TTAAAGGCCGCTTTTGCGGGATCGTCACCCTCAGCAGCGAAAGACAGCTTCGGAACGAGGGTAGC
DNA 2: GCTACCCTCGTTCCGAAGCTGTCTTTCGCTGCTGAGGGTGACGATCCCGCAAAAGCGGCCTTTAA
B5: binds [3].

B6: WT g8 crRNA + CTT PAM (AAG) M13 probe (mixed)
RNA: AUAAACCGCUGUCUUUCGCUGCUGAGGGUGACGAUCCCGCGAGUUCCCCGCGCCAGCGGGG
DNA 1: TTAAAGGCCGCTTTTGCGGGATCGTCACCCTCAGCAGCGAAAGACAGCTTCGGAACGAGGGTAGC
DNA 2: GCTACCCTCGTTCCGAAGCTGTCTTTCGCTGCTGAGGGTGACGATCCCGCAAAAGCGGCCTTTAA
B6: binds ([2]; guide / target / displaced).

B7: g8G-1T crRNA + CTC PAM probe (mixed)
RNA: AUAAACCUCUGUCUUUCGCUGCUGAGGGUGACGAUCCCGCGAGUUCCCCGCGCCAGCGGGG
DNA 1: TTAAAGGCCGCTTTTGCGGGATCGTCACCCTCAGCAGCGAAAGACAGCTCCGGAACGAGGGTAGC
DNA 2: GCTACCCTCGTTCCGGAGCTGTCTTTCGCTGCTGAGGGTGACGATCCCGCAAAAGCGGCCTTTAA
B7: binds [3].

B8: g8G-1T crRNA + CAT PAM probe (mixed)
RNA: AUAAACCUCUGUCUUUCGCUGCUGAGGGUGACGAUCCCGCGAGUUCCCCGCGCCAGCGGGG
DNA 1: TTAAAGGCCGCTTTTGCGGGATCGTCACCCTCAGCAGCGAAAGACAGCATCGGAACGAGGGTAGC
DNA 2: GCTACCCTCGTTCCGATGCTGTCTTTCGCTGCTGAGGGTGACGATCCCGCAAAAGCGGCCTTTAA
B8: binds [3].

B9: g8G-1T crRNA + CCT PAM probe (mixed)
RNA: AUAAACCUCUGUCUUUCGCUGCUGAGGGUGACGAUCCCGCGAGUUCCCCGCGCCAGCGGGG
DNA 1: TTAAAGGCCGCTTTTGCGGGATCGTCACCCTCAGCAGCGAAAGACAGCCTCGGAACGAGGGTAGC
DNA 2: GCTACCCTCGTTCCGAGGCTGTCTTTCGCTGCTGAGGGTGACGATCCCGCAAAAGCGGCCTTTAA
B9: binds [3].
